The values that follow come from the RNAGym collection of RNA variant scans (doi:10.7554/elife.80360).

B1: Twister Ribozyme (parent)
chain: AACACUGCCAAUGCCGGUCCCAAGCCCGGAUAAAAGUGGAGGGGGCGG

The variants in this series derive from B1. Kind of series: self-cleavage, relative activity (ratio to wild type); higher = more cleavage; co-transcriptional.
As to AAGACUGCCAAUGCCGGUCCCAAGCCCGGAUAACAGUGGAGGGGGCGG, the self-cleavage was determined as 0.0918.
Next, AAGACUGCCAAUGCCGGUCCCAAGCCCGGAUAAGAGUGGAGGGGGCGG: 0.235.
Consider AAGACUGCCAAUGCCGGUCCCAAGCCCGGAUAAUAGUGGAGGGGGCGG, for which the self-cleavage was 0.203.
Consider AAGACUGCCAAUGCCGGUCCAAAGCCCGGAUAAAAGUGGAGGGGGCGG, for which the self-cleavage was 0.0645.
As to AAGACUGCCAAUGCCGGCCCCAAGCCCGGAUAAAAGUGGAGGGGGCGG, the self-cleavage was 0.147.
Next, AAGACUGCCAAUGCCGGUCCCAAGCCCGGAUAAAAGUGGAGGGCGCGG: 0.345.
As to AAGACUGCCAAUGCCGGUCCCAAGCCCGGAUAAAAGUGGAGGGUGCGG, the self-cleavage turned out to be 0.425.
Regarding AAAACUGCCAACGCCGGUCCCAAGCCCGGAUAAAAGUGGAGGGGGCGG, the self-cleavage was 0.425.
Regarding AAGACUGCCAAUGCCGGUCCCAAGCCCGGAUGAAAGUGGAGGGGGCGG, the self-cleavage stood at 0.434.
Next, AAGACUGCCAAUGCCGGUCCCAAGCCCGUAUAAAAGUGGAGGGGGCGG: 0.394; AAGACUGCCAAUGCCGGUCCCAAGCCCGCAUAAAAGUGGAGGGGGCGG: 0.236; AAAACUGCCAAUGCCGGUCCCAAGCCCGGAAAAAAGUGGAGGGGGCGG: 0.163.
For AAAACUGCCAAUGCCGGUCCCAAGCCCGGAGAAAAGUGGAGGGGGCGG, the self-cleavage stood at 0.121.
AAAACUGCCAAUGCCGGUCCCAAGCCCGGACAAAAGUGGAGGGGGCGG: the self-cleavage stood at 0.224.
Next, AAGACUGCCAAAGCCGGUCCCAAGCCCGGAUAAAAGUGGAGGGGGCGG: 0.658.
Turning to AAGACUGCCAAGGCCGGUCCCAAGCCCGGAUAAAAGUGGAGGGGGCGG, the self-cleavage came out at 0.4.
For the variant AAGACUGCCAACGCCGGUCCCAAGCCCGGAUAAAAGUGGAGGGGGCGG, the self-cleavage turned out to be 0.447.
AAAACUGCCAAUGCCGGUCCCAAGCCCGGAUAAAAGUGGAGCGGGCGG: the self-cleavage was determined as 0.0718.
For the variant AAAACUGCCAAUGCCGGUCCCAAGCCCGGAUAAAAGUGGAGAGGGCGG, the self-cleavage was 0.0462.
Turning to AAAACUGCCAAUGCCGGUCCCAAGCCCGGAUAAAAGUGGAGGGAGCGG, the self-cleavage was 0.221.
Turning to AAAACUGCCAAUGCCGGUCCCAAGCCCGGAUAAAAGUGCAGGGGGCGG, the self-cleavage came out at 0.0623.
Next, AAAACUGCCAAUGCCGGUCCCAAGCCCGGAUAAAAAUGGAGGGGGCGG: 0.0998.
Next, AAAACUGCCAAUGCCGGUCCCAAGCCCGGAUAAAACUGGAGGGGGCGG: 0.0352; AAAACUGCCAAUGCCGGUCCCAAGCCCGGAUAAAAUUGGAGGGGGCGG: 0.0633.
Consider AAGACUGCCAAUGCCGGUCCCAAGGCCGGAUAAAAGUGGAGGGGGCGG, for which the self-cleavage worked out at 0.109.
Next, AAGACUGCCAAUGCCGGUCCCAAGUCCGGAUAAAAGUGGAGGGGGCGG: 0.317; AAAACUGCCAAUGCCGGUCCCAAGCCCGGAUAAAAGAGGAGGGGGCGG: 0.201.
As for AAAACUGCCAAUGCCGGUCCCAAGCCCGGAUAAAAGCGGAGGGGGCGG, the figure is 0.193.
As for AAGACUGCCAAUGCCGGUCCCAAGCCCGGAUAAAAGUGGAGGGGGCUG, the figure is 0.361; as for AAGACUGCCAAUGCCGGUCCCAAGCCCGGAUAAAAGUGGAGGGGGCAG, 0.275.
AAAACUGCCAAUGCCGAUCCCAAGCCCGGAUAAAAGUGGAGGGGGCGG: the self-cleavage was 0.0964.
Next, AAGACUGCCAAUGCCGGUCCCAAGCCCGGGUAAAAGUGGAGGGGGCGG: 0.239; AAGACUGCCAAUGCCGGUCCCAAGCCCGGUUAAAAGUGGAGGGGGCGG: 0.427; AAGACUGCCAAUGCCGGUCCCAAGCCCGGAUAAAAGUGGAGUGGGCGG: 0.118.
As for AAGACUGCCAAUGCCGGUCCCAAGCCCGGAUAAAAGUGGAGCGGGCGG, the figure is 0.128.
As for AAGACUGCCAAUGCCGGUCCCAAGCCCGGAUAAAAGUGGAGAGGGCGG, the figure is 0.111; as for AAGACUGCCAAUUCCGGUCCCAAGCCCGGAUAAAAGUGGAGGGGGCGG, 0.0808.
Consider AAGACUGCCAAUGCCGGUCCCAAGCCCAGAUAAAAGUGGAGGGGGCGG, for which the self-cleavage worked out at 0.239.
Next, AAGACUGCCAAUGCCGGUCCCAAGCCCUGAUAAAAGUGGAGGGGGCGG: 0.253.
For AAGACUGCCAAUGCCGGUCCCAAGCCCCGAUAAAAGUGGAGGGGGCGG, the self-cleavage is 0.167.
In the case of AAAACUGCCAAUGCCGGUCCCAAUCCCGGAUAAAAGUGGAGGGGGCGG, the self-cleavage came out at 0.0787.
Consider AAAACUGCCAAUGCCGGUCCCAAACCCGGAUAAAAGUGGAGGGGGCGG, for which the self-cleavage stood at 0.0635.
As to AAGACUGCCAAUGCCGGUCCCAAGCCCGGAUAGAAGUGGAGGGGGCGG, the self-cleavage was 0.483.
As to AAGACUGCCAAUGCCGGUCCCAAGCCCGGAUACAAGUGGAGGGGGCGG, the self-cleavage was determined as 0.357.
As to AAGACUGCCAAUGCCGGUCCCUAGCCCGGAUAAAAGUGGAGGGGGCGG, the self-cleavage amounted to 0.384.
Next, AAGACUGCCAAUGCCGGUCCCAAGCCCGGAUAAACGUGGAGGGGGCGG: 0.397; AAGACUGCUAAUGCCGGUCCCAAGCCCGGAUAAAAGUGGAGGGGGCGG: 0.191.
Regarding AAGACUGCCAAUGCCGGUCCCAGGCCCGGAUAAAAGUGGAGGGGGCGG, the self-cleavage worked out at 0.106.
As for AAGACUGCCAAUGCCGGUCCCAUGCCCGGAUAAAAGUGGAGGGGGCGG, the figure is 0.107; as for AAGACUGCCAAUGCCGGUCCCACGCCCGGAUAAAAGUGGAGGGGGCGG, 0.137.
Next, AAAACAGCCAAUGCCGGUCCCAAGCCCGGAUAAAAGUGGAGGGGGCGG: 0.0998; AAAACUGCCAAUGCCGGUCCCAAGCCCGAAUAAAAGUGGAGGGGGCGG: 0.232; AAAACUGCCAAUGCCGGUCCCAAGCCCGUAUAAAAGUGGAGGGGGCGG: 0.231.
Turning to AAAACUGCCAAUGCCGGUCCCAAGCCCCGAUAAAAGUGGAGGGGGCGG, the self-cleavage was determined as 0.179.
